Measurements published in patent publication US20020137055, “Method and apparatus for measurement of the effect of test compounds on signal transduction at the level of biological receptors” (published 2002).

Experiments:
Settings in all cases: protein: extract; tags: Cy5-labelled; expressed as ubiquitin fusion in Saccharomyces cerevisiae AF103 (YEpE10 plasmid); yeast extract preparation
[1] = molecular target: T1, human estrogen receptor (recombinant hER, 65 kDa) (Homo sapiens, UniProt P03372 P03372:1-595); test: evanescent fiber optic sensor; with 1e-6 M estrone; control 3.51
Protocol: (§1) This solution comprised said calibration standard of component 6a. […] This receptor preparation was used as the calibration solution. Immediately after preparation it was pipetted in 135 μl aliquots into microcentrifuge tubes, snap frozen and stored at −80° C. They were not thawed again until they were used with the fiber sensor. Sample solutions of component 6a were similarly prepared, except that the dilution at the end with receptor buffer gave a total receptor concentration of […]. If the solution was to be used with an ERE fiber (component 1a type 2), then polydeoxyinosinic-deoxycytidylic acid sodium salt was added to the receptor buffer to prevent nonspecific binding to the ERE fiber. Solutions containing 4.4×10⁻¹⁰ M Cy5-tagged-estrogen-receptor solution and in addition to a predetermined amount of estrogen or estrogen mimic were created to test the impact of said estrogen or estrogen mimic.
(§2) 12) Using fiber sensors of component 1a type 2, and the foregoing procedure the S/C value was calculated for several different estrogens tested at 10⁻⁶ M concentration.

[2] = molecular target: T1, human estrogen receptor (recombinant …); test: evanescent fiber optic sensor; control, no ligand; 4.4e-10 M receptor; 500 mM KCl phosphate pH 7.5, poly(dI-dC)
Protocol: as §1, §2

[3] = molecular target: T1, human estrogen receptor (recombinant …); test: evanescent fiber optic sensor; with 1e-6 M diethylstilbestrol; control 3.51
Protocol: as §1, §2

[4] = molecular target: T1, human estrogen receptor (recombinant …); test: evanescent fiber optic sensor; with 1e-6 M zearalenone; control 3.51
Protocol: as §1, §2

T1 sequence (P03372 whole entry, one chain of several): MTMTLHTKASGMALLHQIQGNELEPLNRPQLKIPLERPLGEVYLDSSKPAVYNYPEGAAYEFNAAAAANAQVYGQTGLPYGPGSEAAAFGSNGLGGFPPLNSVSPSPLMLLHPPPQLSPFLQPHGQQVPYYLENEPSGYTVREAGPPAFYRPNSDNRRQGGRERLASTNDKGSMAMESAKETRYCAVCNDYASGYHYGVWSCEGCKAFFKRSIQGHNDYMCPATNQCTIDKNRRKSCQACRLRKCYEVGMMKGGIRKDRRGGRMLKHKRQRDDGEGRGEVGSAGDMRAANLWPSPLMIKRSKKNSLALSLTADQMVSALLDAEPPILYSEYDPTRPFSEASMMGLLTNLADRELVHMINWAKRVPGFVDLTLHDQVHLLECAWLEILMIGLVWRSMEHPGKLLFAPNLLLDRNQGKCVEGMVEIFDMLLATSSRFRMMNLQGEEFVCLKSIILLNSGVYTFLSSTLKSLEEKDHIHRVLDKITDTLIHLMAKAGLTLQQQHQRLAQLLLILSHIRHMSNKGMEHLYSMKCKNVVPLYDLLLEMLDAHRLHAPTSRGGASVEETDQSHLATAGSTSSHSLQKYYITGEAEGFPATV

B1: ERE (Xenopus vitellogenin A2 estrogen response element) (dsDNA)
DNA 1: GTCCAAAGTCAGGTCACAGTGACCTGATCAAAGTT
DNA 2: AACTTTGATCAGGTCACTGTGACCTGACTTTGGAC
modifications: amine on the 5' G residue of one strand, covalently linked to optical fiber via GMBS
binding signal [1]: 4.44 S/C ratio
binding signal [2]: 3.51 S/C ratio
binding signal [3]: 4.87 S/C ratio
binding signal [4]: 5.01 S/C ratio
